Reference: patent US10077295B2, “Glycoproteins having lipid mobilizing properties and therapeutic uses thereof” (Aston University, priority 2010, dated 2018)

Experiments:
ob/ob mice [1] = experiment: ob/ob mice administered ZAG i.v. for 5 days (120 h): body weight, temperature, plasma metabolites, tissue weights; assay type: in vivo, mouse
Procedure: Animals—Mice. Homozygous obese (ob/ob) mice from the colony maintained at Aston University were used in the present study. The origin and characteristics of Aston ob/ob mice have been previously described. Male mice (20-21 weeks old, weight 90-100 g) were grouped into three per cage in an air conditioned room at 22±2° C. with a 12 h-light:12 h-dark cycle and fed a rat and mouse breeding diet (Special Diet Services, Witham, UK) and tap water ad libitum. They were administered ZAG (35 μg) in PBS (100 μl) b.d. by i.v. administration and body weight and food and water intake were monitored daily. Control mice received PBS alone. Body temperature was measured daily by the use of a rectal thermometer (RS Components, Northants, UK). All animal experiments were carried out in accordance with the U.K. Animals (Scientific Procedures) Act 1986.
Serum Metabolite Determinations. Non-esterified fatty acids (NEFA) were determined using a Wako-ASC-ACOD kit (Wako Chemical GmbH, Neuss, Germany). Triglycerides were determined using a Triglyceride kit (Sigma Chemical Co., Poole, United Kingdom) and 3-hydroxybutyrate by a quantitative enzymatic determination kit (Sigma). Glucose was measured using a glucose analyser (Beckman, Irvine, Calif.) and glycerol was determined enzymatically using the method of Wieland as described in “Methods of Enzymatic Analysis” (Ed. Bergmeyer, H. U.) Vol. 3, pp1404-1409, published by Academic Press, London (1974).

β3-AR = β3-AR (Homo sapiens, UniProt P13945); experiment: Cyclic AMP production in CHO-K1 cells transfected with β3-AR; assay type: cell-based; design: host or cells: CHO-K1; settings: CHO-K1 β3-AR
Procedure: (§1) Binding Studies and Cyclic AMP Determination. CHO-K1 cells transfected with the human β1- and β2-AR obtained from University of Nottingham, UK, while CHOK1 cells transfected with the β3-AR were obtained from Astra Zeneca, Macclesfield, Cheshire, UK. Gene expression was under the control of hygromycin, together with a β-gal reporter construct, selected for resistance to G418. They were maintained in DMEM supplemented with 2 mM glutamine, hygromycin B ([…]), G418 ([…]), and 10% FCS, under an atmosphere of 10% CO2 in air. To determine the effect of agonists on cyclic AMP production, cells were grown in 24-well plates containing 1 ml of nutrient medium.

human β2-AR = target: T1, human β2-AR (Homo sapiens, UniProt P07550); experiment: Cyclic AMP production in CHO-K1 cells transfected with β2-AR; assay type: cell-based; settings: CHO-K1 β2-AR
T1 construct: host or cells: CHO-K1
Procedure: as §1

ob/ob mice [2] = experiment: Glucose tolerance test in ob/ob mice after 3 days of ZAG; assay type: in vivo, mouse
Text: FIG. 2A is a graphical diagram showing glucose tolerance of ob/ob mice treated with ZAG. Plasma glucose levels in ob/ob mice in the fed state either treated with ZAG (▪) or PBS (♦) for 3 days after […]. p<0.001 from PBS. Blood samples were removed from the tail vein at intervals after glucose administration and used for the measurement of glucose and insulin.
FIG. 2B is a graphical diagram showing plasma insulin levels in ob/ob mice treated with ZAG after oral administration of glucose (1 g/kg). p<0.001 from PBS.
To investigate this, a glucose tolerance test was performed, on fed animals, after 3 days of ZAG administration (FIG. 2A). […] The glucose uptake in gastrocnemius muscle of ZAG treated mice was greater than the response to insulin in non-treated animals.

[3] = tested on: skeletal muscle of ob/ob mice; experiment: Protein synthesis and degradation in skeletal muscle of ZAG-treated ob/ob mice; assay type: in vivo, mouse; settings: ob/ob mice treated 5 days
Procedure: Protein Synthesis and Degradation in Muscle. The method for the determination of protein synthesis and degradation in muscle has been previously described (Smith, K. L. & Tisdale, M. J. Increased protein degradation and decreased protein synthesis in skeletal muscle during cancer cachexia. Br. J. Cancer 67, 680-685 (1993)). […] Protein synthesis was measured by the incorporation of L-[2,6-^3H] phenylalanine (640 MBq) into acid-insoluble material using a 2 h period in which the muscles were incubated at 37° C. in RPMI/640 without phenol red and saturated with O2:CO2 (19:1). Muscles were then rinsed in non-radioactive medium, blotted and homogenised in 2% perchloric acid. The rate of protein synthesis was calculated by dividing the amount of protein-bound radioactivity by the amount of acid soluble radioactivity. Protein degradation was determined by the release of tyrosine from gastrocnemius muscle over a 2 h period in 3 ml of oxygenated Krebs-Henseleit buffer, pH7.4, containing 5 mM glucose and 0.5 mM cycloheximide.

ob/ob mice [4] = experiment: ob/ob mice treated with ZAG i.v. with or without propanolol; assay type: in vivo, mouse; settings: ZAG alone
Procedure: Animals. […] Male mice (about 20 weeks of age) were grouped into three per cage and kept in an air conditioned room at 22±2° C., with ad libitum feeding of a rat and mouse breeding diet (Special Diet Services, Witham, UK) and tap water. Mice were administered ZAG (50 μg, i.v. in 100 μl PBS) or PBS daily with or without propanolol (40 mgkg^−1, po, daily) and body weight and food and water intake were determined, as well as urinary glucose excretion and body temperature, determined by the use of a rectal thermometer (RS Components, Northants, UK). A glucose tolerance test was performed on day 3. […] Blood samples were removed from the tail vein at 15, 30, 60 and 120 min after glucose administration and used for the measurements of glucose and insulin. At the end of the experiment the animals were terminated by cervical dislocation, tissues removed and rapidly frozen in liquid nitrogen, and maintained at −80° C.
To determine whether ZAG can increase insulin signalling the effect on Glut4 expression was determined.

Sequence of β3-AR (P13945 whole entry): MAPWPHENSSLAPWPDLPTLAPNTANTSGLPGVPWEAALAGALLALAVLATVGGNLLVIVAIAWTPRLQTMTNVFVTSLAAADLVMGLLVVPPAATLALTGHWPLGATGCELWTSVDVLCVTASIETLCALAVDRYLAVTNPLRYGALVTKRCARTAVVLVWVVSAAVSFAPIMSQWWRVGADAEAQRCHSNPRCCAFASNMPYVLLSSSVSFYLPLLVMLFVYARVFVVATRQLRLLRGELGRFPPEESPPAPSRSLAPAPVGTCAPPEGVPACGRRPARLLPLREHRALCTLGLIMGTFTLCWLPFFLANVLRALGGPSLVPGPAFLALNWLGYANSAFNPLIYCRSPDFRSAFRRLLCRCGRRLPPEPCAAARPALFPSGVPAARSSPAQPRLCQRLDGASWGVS

B1: ZAG: recombinant full length human zinc-α2-glycoprotein (SEQ ID NO: 1) secreted by transfected HEK293F cells; lipid mobilizing factor (protein, listed as Homo sapiens)
chain: QENQDGRYSLTYIYTGLSKHVEDVPAFQALGSLNDLQFFRYNSKDRKSQPMGLWRQVEGMEDWKEDSQLQKAREDMETLKDIVEYYNDSNGSHVLQGRFGCEIENNRSSGAFWKYYYDGKDYIEFNKEIPAWVPFDPAAQITKQKWEAEPVYVQRAKAYLEEECPATLRKYLKYSKNILDRQDPPSVVVTSHQAPGEKKKLKCLAYDFYPGKIDVHWTRAGQVQEPELRGDVLHNGNGTYQSWVVVAVPPQDTAPYSCHVQHSSLAQPLVVPWEAS
oxygen uptake by BAT (ob/ob mice [1]; ob/ob mice after ZAG administration): three-fold increase | BAT weight (ob/ob mice [1]; ob/ob mice treated for 120 h): 0.73 ± 0.12 p < 0.01 g | Gastrocnemius weight (ob/ob mice [1]; ob/ob mice treated for 120 h): 1.12 ± 0.14 p < 0.01 g | Glucose (plasma) (ob/ob mice [1]; ob/ob mice treated for 120 h): 20.3 ± 0.8 p < 0.01 mmol/L | Glycerol (plasma) (ob/ob mice [1]; ob/ob mice treated for 120 h): 429 + 36 p < 0.001 μmol/L | Insulin (plasma) (ob/ob mice [1]; ob/ob mice treated for 120 h): 26.3 ± 0.52 p < 0.001 ng/mL | Insulin Pancreas (ob/ob mice [1]; ob/ob mice treated for 120 h): 16.3 ± 3.1 p = 0.0042 pg/g pancerase | NEFA (plasma) (ob/ob mice [1]; ob/ob mice treated for 120 h): 0.23 ± 0.05 p < 0.001 mEq/L | Soleus weight (ob/ob mice [1]; ob/ob mice treated for 120 h): 0.80 ± 0.09 p < 0.01 g | TG (plasma) (ob/ob mice [1]; ob/ob mice treated for 120 h): 0.9 ± 0.1 p < 0.05 mmol/L | adverse effects after administration (ob/ob mice [1]; ob/ob mice, 35 μg i.v.): No adverse effects were observed | decrease in plasma insulin levels (ob/ob mice [1]; ob/ob mice, 5 days): 36% | blood glucose (ob/ob mice [1]; ob/ob mice, Day 5 (value before the further drop)): 2.03 mM | rise of body temperature (ob/ob mice [1]; ob/ob mice, after 4 days of ZAG): 0.4 °C | weight difference between ZAG and PBS groups (ob/ob mice [1]; ob/ob mice, after 5 days): 3.5 g | lowest concentration to stimulate cyclic AMP production (β3-AR): 350 nM | concentration required to stimulate cyclic AMP production (human β2-AR): 580 nM | blood glucose levels in glucose tolerance test (ob/ob mice [2]; fed ob/ob mice, after 3 days of ZAG): only a small rise | plasma insulin levels in glucose tolerance test (ob/ob mice [2]; ob/ob mice, 60 min of observation): significantly lower | decrease in protein degradation [3]: 60% | protein synthesis in soleus muscle [3]: over a two-fold increase | effect on liver lipids (ob/ob mice [4]): no effect on liver lipids
